B1: antibody 122-72 (antibody, V domains shown)
VH: EVQLVESGGGLVQPKGSLKLSCAASGFTFNTYAMNWVRQAPGKGLEWVARIRSKSNNYATYYADSVKDRFTISRDDSQSMLYLQMNNLKTEDTAMYYCVAYGSRNYWGQGTTLTVSS
VL: DIVMTQSPSSLTVTAGEKVTMSCKSSQSLLNSGNQKNYLTWYQQKPGQPPKLLIYWASTRESGVPDRFTGSGSGTDFTLTISSVQAEDLAVYYCQNDYSYPYTFGGGTKLEIKR
notes: Mouse IgM, kappa from a hybridoma; tested as hybridoma culture supernatant; Antibody 60-43 is said to have the same CDRs
B2: antibody 55-31 (antibody, mouse IgM, V domains shown)
VH: QVQLQQPGAELVKPGTSVKLSCKASGYNFTSYWINWVKLRPGQGLEWIGDIYPGSGSTNYNEKFKSKATLTVDTSSSTAYMQLSSLASEDSALYYCARSAYRYDWFAYWGQGTLVTVSA
VL: DIQMTQSPASLSVSVGETVTITCRASENIYSNLAWYQQKQGKSPQLLVYAATNLADGVPSRFSGSGSGTQYSLKINSLQSEDFGSYYCQHFWGTPYTFGGGTKLEIKR
notes: Mouse IgM, kappa from a hybridoma; tested as hybridoma culture supernatant
B3: antibody 6-90 (antibody, mouse IgM, V domains shown)
VH: EVELQQFGIEMVKPGASVKISCKASGYIFTDYHMDWVRQSHGKSLEWIGDIDPKYDRVTYNQKFKGKASLTADKSSSTAYMELRSLTSEDTAVYYCAKTGAYGDYLAYWGQGTLVTVSA
VL: DLVMTQTPLSLPVSLGDQASISCRSSQSLVHSDGNTYFYWYLQKPGQSPKLLIYKVSNRFSGVPDRFSAGGSGTYFTLKISRVEAEDLGVYFCSQTTHFPPTFGGGTKLEIKR
notes: as for B2

Columns and labels:
[1] = molecular target: human transferrin receptor expressed by nonhematopoietic cancer cells (human) (UniProt P02786); assay: FACS, H358 cells, 1X
human transferrin receptor expressed by nonhematopoietic cancer cells (human), sequence (P02786 whole entry G142S): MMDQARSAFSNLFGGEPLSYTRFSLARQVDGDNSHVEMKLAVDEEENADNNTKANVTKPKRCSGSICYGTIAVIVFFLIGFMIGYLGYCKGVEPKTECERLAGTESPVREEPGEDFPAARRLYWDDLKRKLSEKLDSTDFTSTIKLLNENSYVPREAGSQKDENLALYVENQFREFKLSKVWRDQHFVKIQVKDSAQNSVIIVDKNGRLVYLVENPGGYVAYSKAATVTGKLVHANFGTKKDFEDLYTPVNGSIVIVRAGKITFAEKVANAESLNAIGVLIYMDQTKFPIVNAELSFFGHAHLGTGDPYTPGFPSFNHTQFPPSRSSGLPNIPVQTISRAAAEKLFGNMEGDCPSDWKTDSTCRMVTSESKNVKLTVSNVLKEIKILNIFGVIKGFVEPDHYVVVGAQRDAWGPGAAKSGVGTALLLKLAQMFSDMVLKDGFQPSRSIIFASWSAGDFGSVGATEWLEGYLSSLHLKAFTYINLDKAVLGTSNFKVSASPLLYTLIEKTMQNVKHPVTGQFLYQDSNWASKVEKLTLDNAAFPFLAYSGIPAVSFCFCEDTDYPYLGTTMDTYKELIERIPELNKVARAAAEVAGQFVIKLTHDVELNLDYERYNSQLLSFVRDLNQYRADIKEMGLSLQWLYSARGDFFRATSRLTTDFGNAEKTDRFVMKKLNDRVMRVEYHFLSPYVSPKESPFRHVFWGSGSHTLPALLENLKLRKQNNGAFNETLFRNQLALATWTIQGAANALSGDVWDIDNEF

[2] = molecular target: human transferrin receptor expressed by nonhematopoietic cancer cells (human) (UniProt P02786); assay: FACS, DU145 cells, 1/5X
[3] = molecular target: human transferrin receptor expressed by nonhematopoietic cancer cells (human) (UniProt P02786); assay: FACS, OMC-3 cells, 1/5X
[4] = molecular target: human transferrin receptor expressed by nonhematopoietic cancer cells (human) (UniProt P02786); assay: FACS, NCI-N87 cells, 1/5X
[5] = molecular target: human transferrin receptor expressed by nonhematopoietic cancer cells (human) (UniProt P02786); assay: FACS, Kato III cells, 1/5X
[6] = molecular target: human transferrin receptor expressed by nonhematopoietic cancer cells (human) (UniProt P02786); assay: FACS, MDA-MB-453 cells, 1/5X
[7] = molecular target: T1, human transferrin receptor expressed by Jurkat cells (human, UniProt P02786 1-760); assay: FACS, Jurkat cells, 1X
T1 construct: Endogenous receptor on Jurkat cells; MEM189 was the positive control; also called TfR on T leukemia cell line Jurkat
T1 sequence (P02786 whole entry G142S): as above

[8] = molecular target: T2, human transferrin receptor expressed by normal human cells (RBC, PMN, lymphocytes, monocytes, platelets, … (human, UniProt P02786 1-760)); assay: FACS, PMN, donor D016, 1x
T2 construct: The assay is whole-cell FACS on normal donor cells; also called TfR on normal cells
T2 sequence (P02786 whole entry G142S): as above
Method: (§1) Preparation of PBMC and PMN: The whole blood was diluted with an equal volume of PBS and mixed with 1/10 volume of 15% Dextran solution. […] After centrifugation at 2200 rpm for 15 min (rotor: SORVALL, PN11788 and centrifuge: SORVALL, RT7), PBMC concentrated in the interface, were collected and washed with large volumes of FACS buffer (2% FBS in PBS) for future use. The PMN-rich pellet was collected, from which residual RBC was removed by hypotonic lysis in 0.2% NaCl.
(§2) 1×10⁵ cells were seeded in each well of a v-bottomed 96-well plate and incubated with 50 μl of hybridoma culture supernatant at 1× and 10× dilution, or isotype control antibody mouse IgM, κ (BD™, Cat. No. 557275) at concentration of 1 μg/ml. A 300× dilution of human cell hyper-immune serum was used as binding positive control for all cell types. PE-conjugated anti-human CD41a (Southern Biotech™, Cat. No. 9391-09) was used as a positive control for staining human platelets. Anti-sialyl Lewis x antibody (Millipore™, Cat. No. MAB2096) was used as a positive control for staining human PMN. Anti-human CD31 (Hycult™, Cat. No. HM2039) was used as a positive control for staining HUVEC. After 30 minutes incubation at 4° C., cells were washed twice with 200 μl FACS buffer (1×PBS containing 1% FBS), stained with 50 μl of 1 μg/ml goat F(ab′)2-anti-mouse IgG(H+L)-PE (Southern Biotech™, Cat. No. 1032-09) or 1 μg/ml goat F(ab′)2-anti-mouse IgM(H+L)-PE (Southern Biotech™, Cat. No. 1022-09) in FACS buffer. After 30 minutes of incubation at 4° C., cells were washed twice with FACS buffer and analyzed by flow cytometry (BD LSR, BD Life Sciences).

[9] = molecular target: T2, human transferrin receptor expressed by …; assay: FACS, PMN, donor D102, 1x
Method: as §1, §2

[10] = molecular target: T1, human transferrin receptor expressed by …; assay: FACS, Jurkat cells, 1/10X
[11] = molecular target: T2, human transferrin receptor expressed by …; assay: FACS, monocytes, donor D005, 1x
Method: as §1, §2

[12] = molecular target: T2, human transferrin receptor expressed by …; assay: FACS, platelets, donor D005, 1x
Method: (§3) The hyper-immuned serum (Hyp-serum) or the corresponding cell marker antibodies for certain cell types were included as positive controls.
as §2

[13] = molecular target: T2, human transferrin receptor expressed by …; assay: FACS, lymphocytes, donor D016, 1x
Method: as §3, §2

[14] = molecular target: T2, human transferrin receptor expressed by …; assay: FACS, lymphocytes, donor D102, 1x
Method: as §1, §2

[15] = molecular target: T2, human transferrin receptor expressed by …; assay: FACS, monocytes, donor D014, 1/10x
Method: as §1, §2

[16] = molecular target: T2, human transferrin receptor expressed by …; assay: FACS, platelets, donor D102, 1/10x
Method: as §3, §2

[17] = molecular target: T2, human transferrin receptor expressed by …; assay: FACS, lymphocytes, donor D005, 1/10x
Method: as §1, §2

[18] = molecular target: T2, human transferrin receptor expressed by …; assay: FACS, lymphocytes, donor D016, 1/10x
Method: as §3, §2

[19] = molecular target: human transferrin receptor expressed by nonhematopoietic cancer cells (human) (UniProt P02786); assay: FACS, DLD-1 cells, 1X
[20] = molecular target: human transferrin receptor expressed by nonhematopoietic cancer cells (human) (UniProt P02786); assay: FACS, OMC-3 cells, 1X
[21] = molecular target: human transferrin receptor expressed by nonhematopoietic cancer cells (human) (UniProt P02786); assay: FACS, Kato III cells, 1X
[22] = molecular target: human transferrin receptor expressed by nonhematopoietic cancer cells (human) (UniProt P02786); assay: FACS, MDA-MB-453 cells, 1X
[23] = molecular target: human transferrin receptor expressed by nonhematopoietic cancer cells (human) (UniProt P02786); assay: FACS, Panc02.03B cells, 1X

| Binder | MFI [1] [MFI] | MFI [2] [MFI] | MFI [3] [MFI] | MFI [4] [MFI] | MFI [5] [MFI] | MFI [6] [MFI] | % of gated cells [7] [%] | % positive cell binding [8] [%] | % positive cell binding [9] [%] | % of gated cells [10] [%] | % positive cell binding [11] [%] | % positive cell binding [12] [%] | % positive cell binding [13] [%] | % positive cell binding [14] [%] | % positive cell binding [15] [%] | % positive cell binding [16] [%] | % positive cell binding [17] [%] | % positive cell binding [18] [%] | MFI [19] [MFI] | MFI [20] [MFI] | other results |
| --- | --- | --- | --- | --- | --- | --- | --- | --- | --- | --- | --- | --- | --- | --- | --- | --- | --- | --- | --- | --- | --- |
| B1 | 942 | 13 | 3040 | 4300 | 724 | 16 | 1 | < 1 | 1 | < 1 | 2 | < 1 | < 1 | < 1 | 1 | < 1 | 1 | 1 | – | – | – |
| B2 | 234 | 2280 | 179 | – | 97 | 65 | 1 | < 1 | 1 | < 1 | 4 | < 1 | 1 | < 1 | < 1 | < 1 | 2 | 1 | 219 | 214 | MFI [21]: 140 MFI; MFI [22]: 81 MFI; MFI [23]: 574 MFI |
| B3 | 823 | – | 2150 | 5100 | 1250 | 141 | < 1 | 1 | 1 | < 1 | 2 | < 1 | 1 | < 1 | < 1 | < 1 | 3 | 1 | 3760 | 3140 | MFI [21]: 1410 MFI; MFI [22]: 147 MFI; MFI [23]: 5910 MFI |

From patent US20130177579A1 (BIOALLIANCE C V, published 2013)
